Starred links: 1 amine or outer side, 2 acyl side, 3 side chain; linkers in the order of their positions; H or OH if unused. No end group written: not given here. Glutaryl = O=C(CCCC(=O)[*:2])[*:1]

This note sets out measurements from PMC6194501, “A chemical reporter facilitates the detection and identification of lysine HMGylation on histones† †Electronic supplementary information (ESI) available: Experimental methods and figures. See DOI: 10.1039/c8sc02483a” (Chemical Science, 2018).

The target of the test is T1, human Sirt5 (human, UniProt Q9NXA8 37-310).
T1 construct: Sirt5 (sirtuin 5), human; the ESI (experimental methods) may tell them; also called sirtuin 5
T1 sequence (looked up): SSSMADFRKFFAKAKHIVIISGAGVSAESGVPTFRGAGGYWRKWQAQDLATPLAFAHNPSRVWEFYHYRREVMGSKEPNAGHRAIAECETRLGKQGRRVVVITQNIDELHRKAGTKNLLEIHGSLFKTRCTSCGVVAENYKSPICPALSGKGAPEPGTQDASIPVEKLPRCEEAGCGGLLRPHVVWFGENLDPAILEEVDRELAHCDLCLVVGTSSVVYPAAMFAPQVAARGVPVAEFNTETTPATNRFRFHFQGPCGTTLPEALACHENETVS
Briefly: ITC; isothermal titration calorimetry of Sirt5 with H3K9 acyl peptides; which partner was titrated and the conditions are not told in the text shown. The note with it: both partners purified. On the technique in general: ITC needs no label: the signal is the heat of the interaction.

The Kd is the equilibrium constant for the complex coming apart. Take KQTARK(Glutaryl)STGGKA [H3K9glu]: the Kd was determined as 12.6 µM. For ARTKQTARKSTGGKA (malonyl-lysine (Kmal) at Lys9) [H3K9mal], the Kd worked out at 35 µM. With KQTARK(HMG)STGGKA [histone H3 peptide carrying an HMG mark at Lys9] the figure was 61.7 µM.
